Measured values: US20200247894A1 (Regeneron, published 2020)
Positions count from the first letter of the chain named.

T1: mouse IL-2Rγ endogenously expressed on MC/9 cells (mouse, UniProt P34902 23-369)
T1 construct: whole, on cells
T1 sequence (looked up): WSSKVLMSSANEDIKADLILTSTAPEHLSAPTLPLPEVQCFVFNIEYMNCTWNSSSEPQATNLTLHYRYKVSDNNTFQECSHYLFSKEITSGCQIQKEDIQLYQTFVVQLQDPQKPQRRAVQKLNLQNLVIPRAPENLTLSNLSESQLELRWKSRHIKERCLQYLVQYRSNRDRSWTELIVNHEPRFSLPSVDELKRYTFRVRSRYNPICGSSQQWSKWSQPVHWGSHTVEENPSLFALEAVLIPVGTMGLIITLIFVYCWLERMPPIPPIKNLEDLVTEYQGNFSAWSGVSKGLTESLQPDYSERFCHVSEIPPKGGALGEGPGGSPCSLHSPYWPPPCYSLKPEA

T2: human IL-2Rγ endogenously expressed on NK-92 and Jurkat cells (human, UniProt P31785 23-369)
T2 construct: whole, on cells; on cells it stands with the other receptor subunits of the cell line; also called IL-2Rg; CD132
T2 sequence (looked up): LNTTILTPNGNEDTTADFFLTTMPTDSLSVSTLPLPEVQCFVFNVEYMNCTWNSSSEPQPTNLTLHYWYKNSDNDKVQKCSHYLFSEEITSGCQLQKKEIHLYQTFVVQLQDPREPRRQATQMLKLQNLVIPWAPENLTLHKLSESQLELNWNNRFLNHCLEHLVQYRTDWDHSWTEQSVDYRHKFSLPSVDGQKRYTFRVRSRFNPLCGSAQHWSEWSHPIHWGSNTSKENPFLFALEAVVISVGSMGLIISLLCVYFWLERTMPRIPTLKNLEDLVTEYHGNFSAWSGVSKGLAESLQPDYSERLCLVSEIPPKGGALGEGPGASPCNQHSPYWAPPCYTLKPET

B1: H4H12926P2 (antibody, human IgG4 S228P, kappa, V domains shown)
VH: QVQLQQSGPGLVKPSQTLSLTCAISGDSVSSNIAAWNWIRLSPSRGLEWLGRTFFRSTWFYDYSLSVKGRITINPDTSKNQFSLHLNSVTPEDAAVYYCARTGRRWSLDYWGQGTLVTVSS
VL: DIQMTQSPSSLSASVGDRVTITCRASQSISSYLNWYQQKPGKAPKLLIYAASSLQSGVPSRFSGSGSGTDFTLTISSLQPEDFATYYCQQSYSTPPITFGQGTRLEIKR
notes: fully human anti-IL2Rg antibody, human IgG4
B2: H4H12886P (antibody, human IgG4 S228P, kappa, V domains shown)
VH: EVQLVESGGGLVKPGGSLRLSCAASGFTFSTAWMSWVRQSPGRGLEWVGRMKSKTDGGTTFYAAPVKGRFTISRDDSKNTLYLQMNSLKTEDTAVYYCTTGLVPAFYKYYGVDVWGQGTTVTVSS
VL: DIQMTQSPSSLSASVGDRITITCQASQDITNYLNWYQQKPGKAPNLLIYDASNLVTGVPSRFSGSGSGTDFTFTILSLQPEDIATYYCQQYDSLLTFGPGTKVDIKR
notes: as for B1
B3: H4H12908P (antibody, human IgG4 S228P, kappa, V domains shown)
VH: EVQLVESGGRLVQPGGSLRLSCEASGFTFSNYGMTWVRQAPGKGLEWVSVISGSDNRKYYAESVKGRFTISRDNSKNTLYLQMNSLRAEDTAVYYCAKLGYSRSSKDFYYGMDVWGQGTTVTVSS
VL: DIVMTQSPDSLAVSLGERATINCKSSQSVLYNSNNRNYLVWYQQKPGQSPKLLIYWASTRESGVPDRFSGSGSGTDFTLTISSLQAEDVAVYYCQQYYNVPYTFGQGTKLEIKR
notes: as for B1
B4: H4H12863P (antibody, human IgG4 S228P, kappa, V domains shown)
VH: QVQLVESGGGVVQPGRSLRLSCTASGFTFRSYDMYWVRQAPGKGLEWVSVITYDGNNKYYADSVKGRFTISRDNSKNTLFLQMSSLRPEDTAVYYCAKRGLIWVGESFDYWGQGTLVTVSS
VL: DIQMTQSPSTLSASVGDRVTITCRASQSINSWLAWYQQKPGKAPNLLIYKASSLESGVPSRFSGSGSGTEFTLTISSLQPDDFATYYCQQYKSYSWTFGQGTKVEIKR
notes: as for B1
B5: H4H12913P2 (antibody, human IgG4 S228P, kappa, V domains shown)
VH: EVQLVESGGGVVRPGGSLRLSCAASGFTFDDYGMSWVRQAPGKGLEWISSINRNGGSADYADSVKGRFTISRDNAKNSLFLQMSSLRAEDTALYHCASGEFRFDYWGQGTLVTVSS
VL: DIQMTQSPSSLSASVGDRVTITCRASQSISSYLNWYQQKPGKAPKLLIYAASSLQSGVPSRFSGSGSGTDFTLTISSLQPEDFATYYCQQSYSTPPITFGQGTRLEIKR
notes: as for B1
B6: H4H12927P2 (antibody, human IgG4 S228P, kappa, V domains shown)
VH: EVQLVESGGGVVRPGGSLRLSCATSGFTFDDYGMSWVRQVPGKGLEWVSSVNRNGGTTDYADSVKGRFTISRDNAKRSLFLQMNSLRAEDTALYHCATGELFFDYWGQGTLVTVSS
VL: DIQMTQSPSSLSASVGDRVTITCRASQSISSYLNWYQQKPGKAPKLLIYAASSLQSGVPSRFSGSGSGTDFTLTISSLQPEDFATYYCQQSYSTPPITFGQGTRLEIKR
notes: as for B1
B7: H4H12871P (antibody, human IgG4 S228P, kappa, V domains shown)
VH: QVQLQESGPGLVKPSQTLSLTCTVSGGSITSGGYYWSWIRQYPGQGLEWIGYIYYSGKTYYNPSFTSRITISVDTSKKQFSLKMSSVTAADTAVYYCARAGFTSSNGWFDPWGQGTLVTVSS
VL: DIQMTQSPSSLSASVGDRVTITCRASQNIRSYLNWYQQKPGKAPKLLIYSASSLQSGVPSRFSGSGSGTDFTLTISSLQPEDFPTYYCQQTYSSPWTFGPGTKVEIKR
notes: fully human anti-IL2Rg antibody, human IgG4; also called REGN9434
B8: H4H12874P (antibody, human IgG4 S228P, kappa, V domains shown)
VH: QVQLVESGGGVVQPGRSLRLSCAASGFNFRNFGMHWVRQAPGKGLEWVAGILYDGSSKYYADSVKDRFTISRDNSKNTLFLQMNSLRAEDTAMYYCAKEEDTAMVPFDSWGPGTLVTVSS
VL: DIQLTQSPSFLSASVGDRVTITCWASQGISSYLAWYQQKPGKAPTLLIYAASTLQSGVPSRFSGSGSGTEFTLTISSLQPEDFASYYCQQLKSYPLTFGGGTKVEIKR
notes: as for B1
B9: H4H12900P (antibody, human IgG4 S228P, kappa, V domains shown)
VH: QVQLVESGGGLVKPGGSLRLSCEASGFTFNDFYMTWIRQAPGKGLEWIAYISKSGDKMRYADSVKGRFSTSRDNAKNSLSLQMNSLRAEDTAVYYCARFYGDIWGQGTLVTVSS
VL: B8 VL with G28D, Y32F, A34V, T45N, T53A, Q89E, K92N, S93N, L96W, G100Q
notes: as for B1
B10: H4H12899P (antibody, human IgG4 S228P, kappa, V domains shown)
VH: QVQLVESGGDLVKPGGSLRLSCATSGFTFSDFYMTWIRQAPGKGLEWISYISNSGSIVKYADSVKGRFTISRDNAKNSLYLQMNSLRAEDTAIYYCARFYGDRWGQGTLVTVSS
VL: B8 VL with S31T, Y32F, T45K, E70D, S85T, Y87H, K92N, S93N, L96W, G100Q
notes: as for B1
B11: H4H12884P (antibody, human IgG4 S228P, kappa, V domains shown)
VH: QVQLQESGPGLVKPSQTLSLTCTVSGGSISSGGYYWSWIRQHPGKGLEWIGFIYYSGKTYYNPSLKSRLTISVDTSKSQFSLKLRSVTAADTAVYYCARLGYTNSAGWFDPWGQGTLVTVSS
VL: DIQMTQSPSSLSASVGDRVTITCRASQSISSYLNWYQQKPGKAPNLLIYAASSLQSGVPSRFSGSGSGTDFTLTISSLQPEDLATYYCQQSYTTPFTFGPGTKVDIKR
notes: as for B1
B12: H4H12890P (antibody, human IgG4 S228P, kappa, V domains shown)
VH: EVQLVESGGGLVQPGGSLRLSCAASGFTFNNYAMHWVRQAPGKGLEYVSSISSSGGSTYYEDSVKGRFTISRDNSKNTLYLQMGSLRAEDMAVYYCARSFYGSGTYYDTFDMWGQGTMVTVSS
VL: B11 VL with V15I, S31R, N45K, G64A, L83F, T93S, P100Q, V104L, D105E
notes: as for B1
B13: H4H12922P2 (antibody, human IgG4 S228P, kappa, V domains shown)
VH: QVQLVESGGGVVKPGGSLRLSCAASGFTFSNSGIHWVRQAPGKGLEWVALISYAGSNKYYADSVKGRFTISRDNSKNTLSLQMNSLRAEDTAVYYCAKEVWTGTYDSFDMWGRGTMVTVSS
VL: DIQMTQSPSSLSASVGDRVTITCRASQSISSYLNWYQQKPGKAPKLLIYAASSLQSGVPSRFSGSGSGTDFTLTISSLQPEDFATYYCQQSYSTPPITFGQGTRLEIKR
notes: fully human anti-IL2Rg antibody, human IgG4; also called REGN7256
B14: H4H12889P (antibody, human IgG4 S228P, kappa, V domains shown)
VH: EVQLVESGGGLVQPGGSLRLSCAASGFIFSSYEMHWVRQAPGKGLEWISYISSSGTTIYYADSVKGRFTISRDNAKNSLYLHMNSLRAEDTAVYYCTRARITGTFDVFDIWGQGTMVTVSS
VL: DIQMTQSPSSLSASVGDRVTITCRASQSISSYLNWYQQKPGKAPKLLIFAASNLQSGVPSRFSGSRSGTDFTLTISSLQPEDFATYYCQQNYNIPYTFGQGTKLEIKR
notes: fully human anti-IL2Rg antibody, human IgG4; also called REGN7257
B15: H4H12924P2 (antibody, human IgG4 S228P, kappa, V domains shown)
VH: EVQLVESGGGLVQPGRSLRLSCAASGFTLEDYAMHWVRQAPGKGLEWVSGISWNRGSTGYADSVKGRFTISRDNAKNSLYLQMTSLRAEDTALYYCAKGFYSMDVWGQGTTVTVSS
VL: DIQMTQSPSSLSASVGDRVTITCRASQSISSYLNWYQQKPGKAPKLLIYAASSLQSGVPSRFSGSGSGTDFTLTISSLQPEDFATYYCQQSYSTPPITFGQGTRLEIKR
notes: as for B1

What follows are binders tested against T1, mouse IL-2Rγ endogenously expressed on … (assay: flow cytometry, 10 ug/ml antibody, MC/9 cells (endogenous mouse IL-2Rg)).
Experimental: (§1) For flow cytometry analyses, the cells were pre-incubated with mouse IgG at 100 μg/ml for 15 minutes at room temperature (RT) to block the binding of the antibodies to Fc receptors. […] Cells were washed, fixed using BD CytoFix™ (BD biosciences, #554655) and analyzed on an IQue® (Intellicyt®) Flow Cytometer or Accuri Flow cytometer (BD). […] The results were analyzed using ForeCyt® (IntelliCyt®) software to determine the geometric means of fluorescence (MFI) for viable cells. Binding ratios were calculated by normalizing the MFI of the test sample by the MFI of the unstained sample.

Binder	Binding Ratio (Sample over unstained MFIs)	Raw MFI [MFI]
B1	1	175
B2	1	185
B3	1	154
B4	1	185
B5	1	178
B6	1	191
B7	1	184
B8	1	202
B9	1	128
B10	1	167
B11	1	172
B12	1	170
B13	1	187
B14	1	91
B15	1	192

These binders were tested against T2, human IL-2Rγ endogenously expressed on … (assay: flow cytometry, 10 ug/ml antibody, NK-92 cells (endogenous human IL-2Rg)).
Experimental: as §1

Binder	Binding Ratio (Sample over unstained MFIs)	Raw MFI [MFI]
B1	12	1850
B2	32	4720
B3	17	2540
B4	87	13000
B5	33	4910
B6	23	3490
B7	92	13700
B8	44	6580
B9	28	4200
B10	18	2670
B11	90	13500
B12	30	4570
B13	84	12500
B14	94	14100
B15	2	231

These binders were tested against T2, human IL-2Rγ endogenously expressed on … (assay: flow cytometry, 10 ug/ml antibody, Jurkat cells (endogenous human IL-2Rg)).
Experimental: as §1

Binder	Binding Ratio (Sample over unstained MFIs)	Raw MFI [MFI]
B1	2	179
B2	6	488
B3	1	86
B4	13	1170
B5	5	472
B6	4	315
B7	18	1620
B8	6	507
B9	1	110
B10	1	114
B11	16	1420
B12	6	500
B13	18	1570
B14	19	1660
B15	1	104
